The supplement of paper PMC9233669
Variants at the floor of the assay were thinned out.

Legend:
[1] = test system: biotinyl-Val-oxazolone; assay: self-aminoacylation, catalytic enhancement (BVO) (fold over background); higher = more active; k-Seq, kA / k0A0; sequences stand for … in GGGAAUGGAUCCACAUCUACGAAUUC…UUCACUGCAGACUUGACGAAGCUG
Procedure, shortened: (§1)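 Mutagenized RNA pools with a 21-nt variable region (0.43 μM) reacted with each biotinyl-aminoacyl-oxazolone at 2–1250 μM. Reactions ran in 50 μL HEPES/NaCl/KCl/MgCl2/CaCl2 buffer with 5% acetonitrile, pH 6.9–7.0, for 90 minutes at room temperature. Streptavidin-captured RNA was quantified by triplicate qPCR and Illumina sequencing, and per-sequence fraction reacted was fit to a pseudo-first-order model with 1000 bootstraps. Catalytic enhancement is median kA divided by the uncatalyzed rate, the low-activity peak of a bimodal Gaussian fit.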

[2] = test system: biotinyl-Met-oxazolone; assay: self-aminoacylation, catalytic enhancement (BMO) (fold over background); higher = more active; k-Seq, kA / k0A0; sequences stand for … in GGGAAUGGAUCCACAUCUACGAAUUC…UUCACUGCAGACUUGACGAAGCUG
Procedure, shortened: as §1

[3] = test system: biotinyl-Ile-oxazolone; assay: self-aminoacylation, catalytic enhancement (BIO) (fold over background); higher = more active; k-Seq, kA / k0A0; sequences stand for … in GGGAAUGGAUCCACAUCUACGAAUUC…UUCACUGCAGACUUGACGAAGCUG
Procedure, shortened: as §1

[4] = test system: biotinyl-Leu-oxazolone; assay: self-aminoacylation, catalytic enhancement (BLO) (fold over background); higher = more active; k-Seq, kA / k0A0; sequences stand for … in GGGAAUGGAUCCACAUCUACGAAUUC…UUCACUGCAGACUUGACGAAGCUG
Procedure, shortened: as §1

[5] = test system: biotinyl-Phe-oxazolone; assay: self-aminoacylation, catalytic enhancement (BFO) (fold over background); higher = more active; k-Seq, kA / k0A0; sequences stand for … in GGGAAUGGAUCCACAUCUACGAAUUC…UUCACUGCAGACUUGACGAAGCUG
Procedure, shortened: as §1

[6] = test system: biotinyl-Trp-oxazolone; assay: self-aminoacylation, catalytic enhancement (BWO) (fold over background); higher = more active; k-Seq, kA / k0A0; sequences stand for … in GGGAAUGGAUCCACAUCUACGAAUUC…UUCACUGCAGACUUGACGAAGCUG
Procedure, shortened: as §1

Row | Sequence | self-aminoacylation [1] | self-aminoacylation [2] | self-aminoacylation [3] | self-aminoacylation [4] | self-aminoacylation [5] | self-aminoacylation [6]
1 | AUUACCCUGGUAAACGAGUGA [Fam2.1 aminoacylation ribozyme variant] | 7.77 | 19.8 | 7.26 | 19.1 | 150 | 20.1
2 | AUUACCCUGGUUACCGAGUGA [Fam2.1 aminoacylation ribozyme variant] | 5.65 | 11.9 | 5.43 | 12.6 | 78.8 | 12.3
3 | AUUUACCUAGGUCAUCGCGUG [Fam2.2 aminoacylation ribozyme variant] | 5.84 | 9.66 | 5.32 | 13.6 | 82.1 | 9.58
4 | CUACAUCAAAGAAUCGGUCUG [Fam1A.1 aminoacylation ribozyme variant] | 0.68 | 0.817 | 0.78 | 0.592 | 0.801 | 0.67
5 | AAGUACGCUAAUAGUCGCAAG [Fam3.1 aminoacylation ribozyme variant] | 1.8 | 1.59 | 1.94 | 2.38 | 6.76 | 3.1
6 | AAGUUUGCUAAUAGUCAGAAG [Fam3.1 aminoacylation ribozyme variant] | 0.937 | 1.01 | 0.943 | 0.808 | 2.61 | 2.22
7 | AGUACCCAGGUCAUCGAGUGA [Fam2.1 aminoacylation ribozyme variant] | 3.2 | 5.45 | 3.36 | 5.05 | 16.6 | 6.61
8 | AUUACCCGGGUCAUCGAGUAA [Fam2.1 aminoacylation ribozyme variant] | 1.58 | 1.91 | 2.05 | 1.54 | 8.59 | 3.56
9 | CCACUCUUCAAGCAAUCGGUG [Fam1B.1 aminoacylation ribozyme variant] | 3.46 | 4.76 | 3.43 | 7.12 | 23.1 | 5.05
10 | AAGUAUGCUAAUAGUCCCAAG [Fam3.1 aminoacylation ribozyme variant] | 1.16 | 1.18 | 1.14 | 1.02 | 3.66 | 1.54
11 | CCAUUCUUCAAGCAAUCGGUC [Fam1B.1 aminoacylation ribozyme variant] | 0.976 | 0.939 | 1.04 | 0.992 | 2.79 | 1.68
12 | CUACUUCAAAAAAUCGGCCUG [Fam1A.1 aminoacylation ribozyme variant] | 1.56 | 1.73 | 1.9 | 1.7 | 15.3 | 13.1
13 | CCACACUUCAAGCGAUCGGUA [Fam1B.1 aminoacylation ribozyme variant] | 2.2 | 1.48 | 1.22 | 1.58 | 1.73 | 0.843
14 | AUUCACUUAGGACAUCGGGUG [Fam2.2 aminoacylation ribozyme variant] | 2.33 | 3.21 | 2.33 | 3.44 | 14.1 | 2.78
15 | AAGUUUCCUAAUAGUCACAAG [Fam3.1 aminoacylation ribozyme variant] | 1.61 | 1.77 | 1.8 | 1.64 | 2.29 | 1.23
16 | UUUCACCUAGGUCAUCGGGAG [Fam2.2 aminoacylation ribozyme variant] | 1.35 | 1.73 | 1.68 | 1.82 | 1.4 | 2.02
17 | AAGUUUGCUGAUAGUCGCGAG [Fam3.1 aminoacylation ribozyme variant] | 1.61 | 1.72 | 1.75 | 2.43 | 6.95 | 1.81
18 | AUUACACUGGUCGUCGAGUGA [Fam2.1 aminoacylation ribozyme variant] | 1.38 | 1.14 | 1.25 | 1.44 | 2.53 | 0.958
19 | AUACACCUGGGUCAUCGGGUG [Fam2.2 aminoacylation ribozyme variant] | 3.54 | 4.39 | 3.31 | 4.41 | 14.8 | 3.69
20 | AUUACCCCGUUCAUCGAGUGA [Fam2.1 aminoacylation ribozyme variant] | 2.77 | 4.47 | 2.28 | 3.55 | 7.48 | 5.03
21 | AGAUUUGCUAAUAGUCGCAAG [Fam3.1 aminoacylation ribozyme variant] | 1.8 | 1.58 | 1.91 | 2.39 | 2.47 | 1.88
22 | CUACUUCAAACUAGCGGUCUG [Fam1A.1 aminoacylation ribozyme variant] | 0.803 | 0.547 | 0.932 | 0.79 | 1.25 | 0.732
23 | AUUACCCUGGUCAAGGAGUGA [Fam2.1 aminoacylation ribozyme variant] | 2.04 | 3.47 | 1.94 | 2.87 | 3.96 | 3.32
24 | AUUUACGUAGGUCAUCGGGUG [Fam2.2 aminoacylation ribozyme variant] | 3.38 | 3.99 | 2.88 | 3.68 | 25.2 | 3.64
25 | AUUCACCUAGGACAUCGCGUG [Fam2.2 aminoacylation ribozyme variant] | 2.83 | 3.57 | 2.53 | 4.57 | 26.8 | 3.99
26 | AUUACACUGGUUAUCGAGUGA [Fam2.1 aminoacylation ribozyme variant] | 3.72 | 7.64 | 4.23 | 8.73 | 45.5 | 10.3

Row | Sequence | self-aminoacylation [1] | self-aminoacylation [2] | self-aminoacylation [3] | self-aminoacylation [4] | self-aminoacylation [5] | self-aminoacylation [6]
27 | UUUACCCUGGUCAUCGCGUGA [Fam2.1 aminoacylation ribozyme variant] | 9.57 | 18.9 | 7.82 | 16.9 | 128 | 19
28 | AUUACCCUGGUCAUCGUAUGA [Fam2.1 aminoacylation ribozyme variant] | 1.02 | 0.984 | 0.789 | 0.814 | 0.633 | 0.855
29 | ACACACUUCAAGCAAUCGGAC [Fam1B.1 aminoacylation ribozyme variant] | 1.02 | 0.97 | 1.1 | 0.979 | 1.42 | 1.43
30 | CUUACCCUGGUCACCGAGUGA [Fam2.1 aminoacylation ribozyme variant] | 4.49 | 9.14 | 3.87 | 8.9 | 57.1 | 8.62
31 | GUUACCCUGCUCAUCGAGUGA [Fam2.1 aminoacylation ribozyme variant] | 1.79 | 3.06 | 1.66 | 2.23 | 8.33 | 3.45
32 | UUUACCCUGGUCAACGAGUGA [Fam2.1 aminoacylation ribozyme variant] | 3.5 | 5.61 | 3 | 5.66 | 26.1 | 8.31
33 | AUUACCCUUGUCACCGAGUGA [Fam2.1 aminoacylation ribozyme variant] | 4.31 | 8.49 | 4.01 | 9.28 | 50.2 | 11.1
34 | CUACUUUAAACAAUCGGUCGG [Fam1A.1 aminoacylation ribozyme variant] | 0.911 | 1.08 | 0.945 | 0.963 | 0.521 | 0.769
35 | AUUCACAUAGGUCAUCGGGUA [Fam2.2 aminoacylation ribozyme variant] | 2.57 | 2.86 | 2.24 | 2.54 | 22.7 | 3.56
36 | CUACUUGAAACAAUCGGACUG [Fam1A.1 aminoacylation ribozyme variant] | 0.786 | 0.782 | 0.922 | 0.944 | 0.551 | 0.651
37 | AUUCACCAAGGUCAUCGGUUG [Fam2.2 aminoacylation ribozyme variant] | 1.39 | 1.55 | 1.42 | 1.72 | 9.05 | 1.69
38 | ACGUUUGCUAAUAGUCACAAG [Fam3.1 aminoacylation ribozyme variant] | 1.39 | 0.95 | 1.34 | 1.15 | 3.82 | 1.82
39 | AAGUUUGCUAAUGGUCGGAAG [Fam3.1 aminoacylation ribozyme variant] | 0.91 | 0.811 | 0.861 | 0.849 | 1.55 | 0.587
40 | CUACUUCAAACAAUCUGUCUU [Fam1A.1 aminoacylation ribozyme variant] | 0.74 | 0.559 | 0.872 | 0.576 | 0.839 | 0.495
41 | AUUAACCUAGGUCAACGGGUG [Fam2.2 aminoacylation ribozyme variant] | 1.89 | 3.36 | 2.13 | 3.59 | 20.5 | 3
42 | GUUACCCUGGUCGUCGAGUGA [Fam2.1 aminoacylation ribozyme variant] | 1.6 | 2.13 | 1.5 | 1.9 | 9.01 | 2.24
43 | AUUACCCUGGUCGUCGAAUGA [Fam2.1 aminoacylation ribozyme variant] | 0.838 | 1.22 | 0.785 | 0.734 | 3.37 | 1.1
44 | AUUCACCUAGGUCCUCGGGUC [Fam2.2 aminoacylation ribozyme variant] | 1.34 | 1.51 | 1.21 | 1.16 | 4.38 | 0.77
45 | UUACACUUCAAGCAAUCGGUC [Fam1B.1 aminoacylation ribozyme variant] | 1.14 | 1.26 | 1.25 | 1.5 | 30.4 | 15.7
46 | AAGUAUGCUAAUAGUCGCAAC [Fam3.1 aminoacylation ribozyme variant] | 0.942 | 1.2 | 1.22 | 1.28 | 2.19 | 1.23
47 | AAGUUUCCUAAUAGUCCCAAG [Fam3.1 aminoacylation ribozyme variant] | 1.73 | 1.5 | 1.57 | 1 | 2.59 | 1.48
48 | AUUCACCUAGCUCAUCGAGUG [Fam2.2 aminoacylation ribozyme variant] | 0.791 | 0.652 | 0.7 | 0.548 | 0.417 | 0.394
49 | AUUCCCCUAGGUCAUCGGUUG [Fam2.2 aminoacylation ribozyme variant] | 3.38 | 3.19 | 3.4 | 3.94 | 11.7 | 2.16
50 | AUUACCCGGGUAAUCGAGUGA [Fam2.1 aminoacylation ribozyme variant] | 5.84 | 12.1 | 5.16 | 13.9 | 81 | 13.2
51 | AUUCAGCUAAGUCAUCGGGUG [Fam2.2 aminoacylation ribozyme variant] | 2.96 | 3 | 2.96 | 3.99 | 24.6 | 2.81
